Our source for the OD values is patent US8703143.

The target in assay [1] is large isoform of tenascin-C (UniProt P24821). Put plainly: ELISA on coated antigen, background subtracted. A general note: An ELISA detects its analyte on a solid surface through an enzyme-linked reagent.
Assay [2] deals with human plasma fibronectin (human) (UniProt P02751). Put plainly: ELISA on coated antigen, background subtracted.

Sequence of large isoform of tenascin-C (P24821 23-2201): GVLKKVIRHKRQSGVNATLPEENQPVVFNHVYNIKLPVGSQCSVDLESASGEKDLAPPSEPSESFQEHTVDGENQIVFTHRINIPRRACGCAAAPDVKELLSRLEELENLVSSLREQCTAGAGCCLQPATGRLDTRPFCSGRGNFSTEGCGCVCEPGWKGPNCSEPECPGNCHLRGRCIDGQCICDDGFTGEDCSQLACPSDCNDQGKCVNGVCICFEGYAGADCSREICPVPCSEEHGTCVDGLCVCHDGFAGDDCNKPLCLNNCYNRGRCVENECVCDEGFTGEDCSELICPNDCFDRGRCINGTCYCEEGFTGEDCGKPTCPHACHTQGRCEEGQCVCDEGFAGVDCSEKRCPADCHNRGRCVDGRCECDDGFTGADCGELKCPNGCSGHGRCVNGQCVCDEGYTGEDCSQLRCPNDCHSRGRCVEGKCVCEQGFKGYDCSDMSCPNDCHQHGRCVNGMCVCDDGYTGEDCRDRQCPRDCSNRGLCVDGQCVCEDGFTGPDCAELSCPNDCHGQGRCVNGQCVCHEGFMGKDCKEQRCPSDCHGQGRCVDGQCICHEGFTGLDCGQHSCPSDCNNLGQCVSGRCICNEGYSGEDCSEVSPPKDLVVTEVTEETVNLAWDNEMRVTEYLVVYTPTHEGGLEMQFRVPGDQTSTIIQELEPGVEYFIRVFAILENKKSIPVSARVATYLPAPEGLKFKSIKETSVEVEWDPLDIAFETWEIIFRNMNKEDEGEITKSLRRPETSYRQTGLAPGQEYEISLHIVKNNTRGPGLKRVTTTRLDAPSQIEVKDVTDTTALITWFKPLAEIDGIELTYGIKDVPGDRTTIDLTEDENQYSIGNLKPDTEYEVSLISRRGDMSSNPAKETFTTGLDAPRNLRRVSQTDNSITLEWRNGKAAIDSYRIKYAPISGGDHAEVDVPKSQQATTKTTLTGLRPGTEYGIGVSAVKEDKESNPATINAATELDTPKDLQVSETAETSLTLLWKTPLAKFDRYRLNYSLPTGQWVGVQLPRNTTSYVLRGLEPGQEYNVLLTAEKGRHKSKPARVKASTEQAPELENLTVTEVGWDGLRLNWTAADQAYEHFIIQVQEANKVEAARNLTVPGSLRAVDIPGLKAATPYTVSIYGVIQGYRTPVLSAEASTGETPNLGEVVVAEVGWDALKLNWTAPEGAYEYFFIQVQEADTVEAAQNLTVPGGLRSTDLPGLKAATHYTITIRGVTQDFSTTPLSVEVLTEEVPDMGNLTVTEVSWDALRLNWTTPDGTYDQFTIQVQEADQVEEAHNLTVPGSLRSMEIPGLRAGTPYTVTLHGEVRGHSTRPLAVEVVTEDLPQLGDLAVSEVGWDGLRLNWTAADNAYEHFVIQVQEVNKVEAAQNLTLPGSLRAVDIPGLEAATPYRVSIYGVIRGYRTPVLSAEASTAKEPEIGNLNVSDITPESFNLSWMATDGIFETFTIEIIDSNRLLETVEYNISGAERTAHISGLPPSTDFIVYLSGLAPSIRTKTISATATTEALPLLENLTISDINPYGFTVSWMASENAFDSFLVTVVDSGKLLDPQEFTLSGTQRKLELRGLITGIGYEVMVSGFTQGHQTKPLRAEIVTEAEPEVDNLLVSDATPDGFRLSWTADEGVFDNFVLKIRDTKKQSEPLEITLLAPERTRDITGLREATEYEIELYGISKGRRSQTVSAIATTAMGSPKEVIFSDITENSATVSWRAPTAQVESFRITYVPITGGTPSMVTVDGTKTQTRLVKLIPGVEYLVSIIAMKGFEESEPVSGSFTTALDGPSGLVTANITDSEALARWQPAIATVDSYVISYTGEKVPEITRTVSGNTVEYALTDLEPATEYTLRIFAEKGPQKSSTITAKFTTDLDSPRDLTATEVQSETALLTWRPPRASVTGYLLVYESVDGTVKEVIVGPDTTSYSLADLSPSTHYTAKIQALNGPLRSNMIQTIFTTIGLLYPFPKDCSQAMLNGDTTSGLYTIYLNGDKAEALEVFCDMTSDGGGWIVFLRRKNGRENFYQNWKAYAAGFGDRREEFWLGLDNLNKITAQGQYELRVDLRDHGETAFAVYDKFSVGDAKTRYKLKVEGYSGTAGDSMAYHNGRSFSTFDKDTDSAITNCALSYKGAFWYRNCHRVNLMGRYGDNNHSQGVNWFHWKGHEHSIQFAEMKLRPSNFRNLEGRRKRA

B1: scFv CGS-1 (scFv, V domains shown)
VH: QVQLVESGGGLVQPGGSLRLSCAVSGFTFSSYAMSWVRQAPGKGLEWVSAISGSGGSTYYADSVKGRFTISRDNSKNTLYLQMNSLRAEDTAVYYCARSLPKWGQGTLVTVSR
VL: SSELTQDPAVSVALGQTVRITCQGDSLRSYYASWYQQKPGQAPVLVTYGKNNRPSGIPDRFSGSSSGNTASLTITGAQAEDEADYYCNSSPVVLNGVVFGGGTKLTVL
In the case of B1, the values for the OD at 405 nm in assay [1] and in assay [2] were 0.01 OD 405 nm and 0.07 OD 405 nm, respectively.
